Experimental data published in patent publication US20210396758A1 (AMLO BIOSCIENCES, published 2021).
Ends that are not written are not given here.

Assays:
human Ambra-1 = molecular target: T1, human Ambra-1 (human, UniProt Q9C0C7 1-1298); test: automated immunohistochemistry (Ventana Benchmark XT), chimeric mouse IgG1 format
T1 construct: the protein stood in tissue sections (immunohistochemistry)
T1 sequence: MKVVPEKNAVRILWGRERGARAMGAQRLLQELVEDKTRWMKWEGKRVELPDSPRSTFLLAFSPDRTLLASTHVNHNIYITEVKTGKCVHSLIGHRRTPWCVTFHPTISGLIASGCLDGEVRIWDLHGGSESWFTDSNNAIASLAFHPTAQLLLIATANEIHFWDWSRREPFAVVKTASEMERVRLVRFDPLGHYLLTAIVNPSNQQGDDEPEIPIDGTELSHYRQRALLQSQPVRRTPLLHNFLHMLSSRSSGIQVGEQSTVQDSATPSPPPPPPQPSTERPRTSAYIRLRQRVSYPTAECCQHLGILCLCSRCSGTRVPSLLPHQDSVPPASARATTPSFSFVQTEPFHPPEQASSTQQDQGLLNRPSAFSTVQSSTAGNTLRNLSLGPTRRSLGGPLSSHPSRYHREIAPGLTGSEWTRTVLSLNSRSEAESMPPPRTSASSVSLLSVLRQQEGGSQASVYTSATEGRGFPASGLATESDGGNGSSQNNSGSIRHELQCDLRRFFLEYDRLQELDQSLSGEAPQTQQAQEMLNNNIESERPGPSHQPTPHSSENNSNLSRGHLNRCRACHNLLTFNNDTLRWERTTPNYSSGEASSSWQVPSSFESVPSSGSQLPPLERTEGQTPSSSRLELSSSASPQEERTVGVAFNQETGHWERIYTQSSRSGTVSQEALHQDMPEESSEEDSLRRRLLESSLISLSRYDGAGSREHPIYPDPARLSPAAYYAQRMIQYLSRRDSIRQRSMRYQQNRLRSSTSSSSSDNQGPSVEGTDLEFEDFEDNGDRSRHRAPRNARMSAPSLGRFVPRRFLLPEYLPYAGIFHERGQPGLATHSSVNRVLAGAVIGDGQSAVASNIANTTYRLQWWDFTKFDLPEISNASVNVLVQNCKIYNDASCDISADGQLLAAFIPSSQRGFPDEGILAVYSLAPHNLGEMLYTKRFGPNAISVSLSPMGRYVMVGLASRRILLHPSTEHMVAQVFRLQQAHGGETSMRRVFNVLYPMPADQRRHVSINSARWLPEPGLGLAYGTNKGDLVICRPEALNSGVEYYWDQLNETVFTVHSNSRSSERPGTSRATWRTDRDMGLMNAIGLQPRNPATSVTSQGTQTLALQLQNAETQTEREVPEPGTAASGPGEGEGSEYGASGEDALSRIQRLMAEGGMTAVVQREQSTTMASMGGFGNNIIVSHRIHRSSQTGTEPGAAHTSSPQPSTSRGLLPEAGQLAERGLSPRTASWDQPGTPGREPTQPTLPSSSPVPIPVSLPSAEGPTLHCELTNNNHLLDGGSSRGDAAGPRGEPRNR

[1] = molecular target: T2, Ambra-1 peptide (synthesized peptide to which anti-Ambra-1 antibodies were raised) (human, not fully specified); test: QC ELISA of the chimeric human/mouse IgG1 antibody on immobilized Ambra-1 peptide conjugates Amb1-TRF and Amb1-BSA; signal over background
T2 construct: Tested in ELISA in native and denatured form; also called Ambra-1 antigen
T2 peptide: CGGSSRGDAAGPRGEPRNR

[2] = molecular target: T3, N1-CD33-His6 (the ectodomain of human CD33 fused to the N1 domain of the g3p filamentous phage M13) (filamentous phage M13; human, UniProt P20138 18-259); test: QC ELISA of the chimeric human/mouse IgG1 antibody on immobilized control protein; signal over background
T3 construct: extracellular domain; not shown: N1 domain of g3p of filamentous phage M13

[3] = molecular target: T3, N1-CD33-His6 (the ectodomain of human …); test: QC ELISA, purified Fab on immobilized control protein; signal (x-fold) over background
[4] = molecular target: T3, N1-CD33-His6 (the ectodomain of human …); test: QC ELISA of the chimeric human/mouse IgG1 antibody on immobilized control protein; signal over background; remark: listed apart in the source

T3 sequence (P20138 18-259, tags left off): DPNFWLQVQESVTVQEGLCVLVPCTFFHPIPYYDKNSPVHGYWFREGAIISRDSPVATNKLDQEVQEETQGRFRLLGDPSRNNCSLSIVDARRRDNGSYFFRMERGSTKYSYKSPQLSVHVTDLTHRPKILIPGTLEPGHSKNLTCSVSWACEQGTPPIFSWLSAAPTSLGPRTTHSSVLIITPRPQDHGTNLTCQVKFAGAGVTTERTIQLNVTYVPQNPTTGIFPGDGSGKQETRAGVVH

B1: AbD33473 full length chimeric antibody against human Ambra-1 with an IgG1 mouse Fc region (antibody, V domains shown)
VH: EVQLVQSGAEVKKPGESLKISCKGSGYSFSSYWIHWVRQMPGKGLEWMGTIFPSRSYTTYSPSFQGQVTISADKSISTAYLQWSSLKASDTAMYYCARDTPSTALKSPFDYWGQGTLVTVSS
VL: DIVLTQPPSVSGAPGQRVTISCSGSSSNIGYNYVYWYQQLPGTAPKLLIYENNKRPSGVPDRFSGSKSGTSASLAITGLQAEDEADYYCSSWDSHSNSYVFGGGTKLTVLG
notes: also called recombinant monoclonal antibody AbD33473; HuCAL antibody AbD33473
B1: binds (human Ambra-1); binds [1]; no binding [2].

B2: HuCAL recombinant monoclonal antibody fragment against human Ambra-1, AbD33473.1, bivalent Fab (Fab-A-FH) (Fab)
heavy: EVQLVQSGAEVKKPGESLKISCKGSGYSFSSYWIHWVRQMPGKGLEWMGTIFPSRSYTTYSPSFQGQVTISADKSISTAYLQWSSLKASDTAMYYCARDTPSTALKSPFDYWGQGTLVTVSSASTKGPSVFPLAPSSKSTSGGTAALGCLVKDYFPEPVTVSWNSGALTSGVHTFPAVLQSSGLYSLSSVVTVPSSSLGTQTYICNVNHKPSNTKVDKKVEPKSRTPEMPVLENRAAQGDITAPGGARRLTGDQTAALRDSLSDKPAKNIILLIGDGMGDSEITAARNYAEGAGGFFKGIDALPLTGQYTHYALNKKTGKPDYVTDSAASATAWSTGVKTYNGALGVDIHEKDHPTILEMAKAAGLATGNVSTAELQDATPAALVAHVTSRKCYGPSATSEKCPGNALEKGGKGSITEQLLNARADVTLGGGAKTFAETATAGEWQGKTLREQAQARGYQLVSDAASLNSVTEANQQKPLLGLFADGNMPVRWLGPKATYHGNIDKPAVTCTPNPQRNDSVPTLAQMTDKAIELLSKNEKGFFLQVEGASIDKQDHAANPCGQIGETVDLDEAVQRALEFAKKEGNTLVIVTADHAHASQIVAPDTKAPGLTQALNTKDGAVMVMSYGNSEEDSQEHTGSQLRIAAYGPHAANVVGLTDQTDLFYTMKAALGLKDYKDDDDKHHHHHH
light: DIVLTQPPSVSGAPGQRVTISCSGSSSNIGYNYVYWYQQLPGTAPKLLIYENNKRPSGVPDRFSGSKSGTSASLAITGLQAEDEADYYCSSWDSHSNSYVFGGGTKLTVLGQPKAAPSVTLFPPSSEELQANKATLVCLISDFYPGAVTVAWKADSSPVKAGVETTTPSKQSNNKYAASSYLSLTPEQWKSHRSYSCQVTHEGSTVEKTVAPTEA
notes: domain: alkaline phosphatase dimerization domain
B2: no binding [3].

B3: AbD33047 full length chimeric antibody against human Loricrin with an IgG1 mouse Fc region (antibody, V domains shown)
VH: QVQLVQSGAEVKKPGASVKVSCKASGYTFNDYYIHWVRQAPGQGLEWMGVISPNSGKTNYAQKFQGRVTMTRDTSISTAYMELSRLRSEDTAVYYCARDLYPDSSAFDIWGQGTLVTVSS
VL: DIELTQPPSVSVSPGQTASITCSGDNLGDKYAHWYQQKPGQAPVLVIYDDNERPSGIPERFSGSNSGNTATLTISGTQAEDEADYYCQSYDSGNRVFGGGTKLTVLG
notes: also called recombinant monoclonal antibody AbD33047; HuCAL antibody AbD33047
B3: no binding [4].
